Tests used:
Assay in all cases: IEDB peptide-MHC binding, cellular MHC/competitive/fluorescence; ≥ and ≤ were set here for values at or beyond the usual limits of such assays
HLA-A*02:02 = target: HLA-A*02:02
HLA-A*02:06 = target: HLA-A*02:06
HLA-A*02:03 = target: HLA-A*02:03
HLA-A*68:02 = target: HLA-A*68:02
HLA-A*02:01 = target: HLA-A*02:01
[1] = source organism: Vaccinia virus WR
[2] = source organism: Influenza A virus
[3] = source organism: Mammarenavirus guanaritoense
[4] = source organism: Mammarenavirus choriomeningitidis

Sequence: DVGCLLTDT
- IC50 (HLA-A*02:02; [1]): ≥ 70 µM
- IC50 (HLA-A*02:06; [1]): ≥ 70 µM
- IC50 (HLA-A*02:03; [1]): 65.4 µM
- IC50 (HLA-A*68:02; [1]): ≥ 70 µM
- IC50 (HLA-A*02:01; [1]): ≥ 70 µM

Sequence: ATYQRTRA
- IC50 (HLA-A*02:02; [2]): ≥ 70 µM
- IC50 (HLA-A*02:06; [2]): ≥ 70 µM
- IC50 (HLA-A*02:03; [2]): ≥ 70 µM
- IC50 (HLA-A*68:02; [2]): ≥ 70 µM
- IC50 (HLA-A*02:01; [2]): ≥ 70 µM

Sequence: VIRHVDGKIL
- IC50 (HLA-A*02:02; [1]): ≥ 70 µM
- IC50 (HLA-A*02:06; [1]): ≥ 70 µM
- IC50 (HLA-A*02:03; [1]): 33.4 µM
- IC50 (HLA-A*68:02; [1]): ≥ 70 µM
- IC50 (HLA-A*02:01; [1]): ≥ 70 µM

Sequence: AVPNGTLV
- IC50 (HLA-A*02:02; [2]): 10.8 µM
- IC50 (HLA-A*02:06; [2]): 10.6 µM
- IC50 (HLA-A*02:03; [2]): ≥ 70 µM
- IC50 (HLA-A*68:02; [2]): 42.9 µM
- IC50 (HLA-A*02:01; [2]): ≥ 70 µM

Sequence: RAVKLYRKL
- IC50 (HLA-A*02:02; [2]): ≥ 70 µM
- IC50 (HLA-A*02:06; [2]): ≥ 70 µM
- IC50 (HLA-A*02:03; [2]): 49.9 µM
- IC50 (HLA-A*68:02; [2]): ≥ 70 µM
- IC50 (HLA-A*02:01; [2]): 53.5 µM

Sequence: ELEKCTSEI
- IC50 (HLA-A*02:02; [1]): 21.1 µM
- IC50 (HLA-A*02:06; [1]): 57.8 µM
- IC50 (HLA-A*02:03; [1]): 56 µM
- IC50 (HLA-A*68:02; [1]): 24.6 µM
- IC50 (HLA-A*02:01; [1]): 24.8 µM

Sequence: FASADNHPKM
- IC50 (HLA-A*02:02; [1]): ≥ 70 µM
- IC50 (HLA-A*02:06; [1]): ≥ 70 µM
- IC50 (HLA-A*02:03; [1]): 47.4 µM
- IC50 (HLA-A*68:02; [1]): ≥ 70 µM
- IC50 (HLA-A*02:01; [1]): ≥ 70 µM

Sequence: PTEMVDVSMM
- IC50 (HLA-A*02:02; [1]): 11.5 µM
- IC50 (HLA-A*02:06; [1]): 12.1 µM
- IC50 (HLA-A*02:03; [1]): ≥ 70 µM
- IC50 (HLA-A*68:02; [1]): ≥ 70 µM
- IC50 (HLA-A*02:01; [1]): 41.9 µM

Sequence: DIVSDSKKIM
- IC50 (HLA-A*02:02; [1]): 25.1 µM
- IC50 (HLA-A*02:06; [1]): ≥ 70 µM
- IC50 (HLA-A*02:03; [1]): 57.2 µM
- IC50 (HLA-A*68:02; [1]): ≥ 70 µM
- IC50 (HLA-A*02:01; [1]): 64.6 µM

Sequence: VIPFDDIVRT
- IC50 (HLA-A*02:02; [1]): 62.8 µM
- IC50 (HLA-A*02:06; [1]): 18.2 µM
- IC50 (HLA-A*02:03; [1]): 50.3 µM
- IC50 (HLA-A*68:02; [1]): 42.2 µM
- IC50 (HLA-A*02:01; [1]): 24.4 µM

Sequence: RINLLVQYGA
- IC50 (HLA-A*02:02; [1]): 10.3 µM
- IC50 (HLA-A*02:06; [1]): 7.65 µM
- IC50 (HLA-A*02:03; [1]): 15.3 µM
- IC50 (HLA-A*68:02; [1]): 21 µM
- IC50 (HLA-A*02:01; [1]): 9.16 µM

Sequence: DLAIKQYGDI
- IC50 (HLA-A*02:02; [1]): 17.9 µM
- IC50 (HLA-A*02:06; [1]): 46.8 µM
- IC50 (HLA-A*02:03; [1]): 33.3 µM
- IC50 (HLA-A*68:02; [1]): 7.72 µM
- IC50 (HLA-A*02:01; [1]): ≥ 70 µM

Sequence: PLIISTDQDT
- IC50 (HLA-A*02:02; [1]): 45 µM
- IC50 (HLA-A*02:06; [1]): 47.4 µM
- IC50 (HLA-A*02:03; [1]): 35.6 µM
- IC50 (HLA-A*68:02; [1]): ≥ 70 µM
- IC50 (HLA-A*02:01; [1]): 52.5 µM

Sequence: KNAGYLVGR
- IC50 (HLA-A*02:02; [3]): 45.7 µM
- IC50 (HLA-A*02:06; [3]): ≥ 70 µM
- IC50 (HLA-A*02:03; [3]): ≥ 70 µM
- IC50 (HLA-A*68:02; [3]): ≥ 70 µM
- IC50 (HLA-A*02:01; [3]): 23 µM

Sequence: SADNHPKMI
- IC50 (HLA-A*02:02; [1]): 8.18 µM
- IC50 (HLA-A*02:06; [1]): ≥ 70 µM
- IC50 (HLA-A*02:03; [1]): 43.5 µM
- IC50 (HLA-A*68:02; [1]): ≥ 70 µM
- IC50 (HLA-A*02:01; [1]): 14.5 µM

Sequence: NVDVGCLLT
- IC50 (HLA-A*02:02; [1]): 9.85 µM
- IC50 (HLA-A*02:06; [1]): 64.9 µM
- IC50 (HLA-A*02:03; [1]): 14 µM
- IC50 (HLA-A*68:02; [1]): ≥ 70 µM
- IC50 (HLA-A*02:01; [1]): 47.3 µM

Sequence: SAAFEDLRL
- IC50 (HLA-A*02:02; [2]): 15.4 µM
- IC50 (HLA-A*02:06; [2]): 30.6 µM
- IC50 (HLA-A*02:03; [2]): 9.24 µM
- IC50 (HLA-A*68:02; [2]): 27.1 µM
- IC50 (HLA-A*02:01; [2]): ≥ 70 µM

Sequence: DIMLPESDL
- IC50 (HLA-A*02:02; [1]): 18.5 µM
- IC50 (HLA-A*02:06; [1]): 31.6 µM
- IC50 (HLA-A*02:03; [1]): 35.8 µM
- IC50 (HLA-A*68:02; [1]): 13.4 µM
- IC50 (HLA-A*02:01; [1]): 12.9 µM

Sequence: NVRGSGMRILV
- IC50 (HLA-A*02:02; [2]): ≥ 70 µM
- IC50 (HLA-A*02:06; [2]): 54.7 µM
- IC50 (HLA-A*02:03; [2]): 46.1 µM
- IC50 (HLA-A*68:02; [2]): 11.2 µM
- IC50 (HLA-A*02:01; [2]): 20.8 µM

Sequence: RVTKRDESSI
- IC50 (HLA-A*02:02; [1]): 12.3 µM
- IC50 (HLA-A*02:06; [1]): 22.2 µM
- IC50 (HLA-A*02:03; [1]): 10.7 µM
- IC50 (HLA-A*68:02; [1]): 8.81 µM
- IC50 (HLA-A*02:01; [1]): 55.9 µM

Sequence: PLTGNNTITT
- IC50 (HLA-A*02:02; [1]): 7.67 µM
- IC50 (HLA-A*02:06; [1]): ≥ 70 µM
- IC50 (HLA-A*02:03; [1]): 29.5 µM
- IC50 (HLA-A*68:02; [1]): 49.3 µM
- IC50 (HLA-A*02:01; [1]): ≥ 70 µM

Sequence: QTRSKAGLLV
- IC50 (HLA-A*02:02; [2]): ≥ 70 µM
- IC50 (HLA-A*02:06; [2]): ≥ 70 µM
- IC50 (HLA-A*02:03; [2]): 22 µM
- IC50 (HLA-A*68:02; [2]): 50.9 µM
- IC50 (HLA-A*02:01; [2]): ≥ 70 µM

Sequence: VASDVCKKNL
- IC50 (HLA-A*02:02; [1]): 50.9 µM
- IC50 (HLA-A*02:06; [1]): ≥ 70 µM
- IC50 (HLA-A*02:03; [1]): ≥ 70 µM
- IC50 (HLA-A*68:02; [1]): 39.5 µM
- IC50 (HLA-A*02:01; [1]): ≥ 70 µM

Sequence: ITGNKVKTEL
- IC50 (HLA-A*02:02; [1]): ≥ 70 µM
- IC50 (HLA-A*02:06; [1]): ≥ 70 µM
- IC50 (HLA-A*02:03; [1]): ≥ 70 µM
- IC50 (HLA-A*68:02; [1]): ≥ 70 µM
- IC50 (HLA-A*02:01; [1]): ≥ 70 µM

Sequence: TVIKNNMI
- IC50 (HLA-A*02:02; [2]): 36 µM
- IC50 (HLA-A*02:06; [2]): 67 µM
- IC50 (HLA-A*02:03; [2]): ≥ 70 µM
- IC50 (HLA-A*68:02; [2]): ≥ 70 µM
- IC50 (HLA-A*02:01; [2]): ≥ 70 µM

Sequence: NILGGVLHT
- IC50 (HLA-A*02:02; [1]): ≥ 70 µM
- IC50 (HLA-A*02:06; [1]): 9.97 µM
- IC50 (HLA-A*02:03; [1]): 20.6 µM
- IC50 (HLA-A*68:02; [1]): ≥ 70 µM
- IC50 (HLA-A*02:01; [1]): 41.7 µM

Sequence: ITETIPIGM
- IC50 (HLA-A*02:02; [1]): 12.4 µM
- IC50 (HLA-A*02:06; [1]): 7.69 µM
- IC50 (HLA-A*02:03; [1]): 42.8 µM
- IC50 (HLA-A*68:02; [1]): 6.13 µM
- IC50 (HLA-A*02:01; [1]): ≥ 70 µM

Sequence: PLPSLEYGA
- IC50 (HLA-A*02:02; [1]): 11.4 µM
- IC50 (HLA-A*02:06; [1]): 42.5 µM
- IC50 (HLA-A*02:03; [1]): 18.9 µM
- IC50 (HLA-A*68:02; [1]): 30.9 µM
- IC50 (HLA-A*02:01; [1]): 14.7 µM

Sequence: TVDHMAII
- IC50 (HLA-A*02:02; [2]): ≥ 70 µM
- IC50 (HLA-A*02:06; [2]): 41.8 µM
- IC50 (HLA-A*02:03; [2]): 13 µM
- IC50 (HLA-A*68:02; [2]): 39.7 µM
- IC50 (HLA-A*02:01; [2]): ≥ 70 µM

Sequence: DVEKEKFVAT
- IC50 (HLA-A*02:02; [1]): 37.5 µM
- IC50 (HLA-A*02:06; [1]): 69.8 µM
- IC50 (HLA-A*02:03; [1]): 54.8 µM
- IC50 (HLA-A*68:02; [1]): ≥ 70 µM
- IC50 (HLA-A*02:01; [1]): 30.2 µM

Sequence: GTMPSLTMAC
- IC50 (HLA-A*02:02; [4]): 25.3 µM
- IC50 (HLA-A*02:06; [4]): 12.1 µM
- IC50 (HLA-A*02:03; [4]): 16.4 µM
- IC50 (HLA-A*68:02; [4]): ≥ 70 µM
- IC50 (HLA-A*02:01; [4]): 34.7 µM

Sequence: LAEYIRHRNT
- IC50 (HLA-A*02:02; [1]): 36.1 µM
- IC50 (HLA-A*02:06; [1]): ≥ 70 µM
- IC50 (HLA-A*02:03; [1]): 14 µM
- IC50 (HLA-A*68:02; [1]): 52.4 µM
- IC50 (HLA-A*02:01; [1]): ≥ 70 µM

Sequence: DVCKKNLDL
- IC50 (HLA-A*02:02; [1]): 25.4 µM
- IC50 (HLA-A*02:06; [1]): 16.3 µM
- IC50 (HLA-A*02:03; [1]): 8.02 µM
- IC50 (HLA-A*68:02; [1]): 40.6 µM
- IC50 (HLA-A*02:01; [1]): 19.5 µM

Sequence: VIVENDNVI
- IC50 (HLA-A*02:02; [1]): 15.5 µM
- IC50 (HLA-A*02:06; [1]): 7.24 µM
- IC50 (HLA-A*02:03; [1]): 19.5 µM
- IC50 (HLA-A*68:02; [1]): 8.02 µM
- IC50 (HLA-A*02:01; [1]): 25.6 µM

Sequence: TIEDDKIVTM
- IC50 (HLA-A*02:02; [1]): 17 µM
- IC50 (HLA-A*02:06; [1]): 26.1 µM
- IC50 (HLA-A*02:03; [1]): 17.2 µM
- IC50 (HLA-A*68:02; [1]): 38.8 µM
- IC50 (HLA-A*02:01; [1]): 13.3 µM
